The experiment concerns the target full-length (FL) BRAF^G469A, 6x-HIS/BRAF^G469A/FLAG (human, UniProt P15056 2-766). Briefly: cell-based or functional assay.

Sequence of full-length (FL) BRAF^G469A, 6x-HIS/BRAF^G469A/FLAG (P15056 2-766 G469A): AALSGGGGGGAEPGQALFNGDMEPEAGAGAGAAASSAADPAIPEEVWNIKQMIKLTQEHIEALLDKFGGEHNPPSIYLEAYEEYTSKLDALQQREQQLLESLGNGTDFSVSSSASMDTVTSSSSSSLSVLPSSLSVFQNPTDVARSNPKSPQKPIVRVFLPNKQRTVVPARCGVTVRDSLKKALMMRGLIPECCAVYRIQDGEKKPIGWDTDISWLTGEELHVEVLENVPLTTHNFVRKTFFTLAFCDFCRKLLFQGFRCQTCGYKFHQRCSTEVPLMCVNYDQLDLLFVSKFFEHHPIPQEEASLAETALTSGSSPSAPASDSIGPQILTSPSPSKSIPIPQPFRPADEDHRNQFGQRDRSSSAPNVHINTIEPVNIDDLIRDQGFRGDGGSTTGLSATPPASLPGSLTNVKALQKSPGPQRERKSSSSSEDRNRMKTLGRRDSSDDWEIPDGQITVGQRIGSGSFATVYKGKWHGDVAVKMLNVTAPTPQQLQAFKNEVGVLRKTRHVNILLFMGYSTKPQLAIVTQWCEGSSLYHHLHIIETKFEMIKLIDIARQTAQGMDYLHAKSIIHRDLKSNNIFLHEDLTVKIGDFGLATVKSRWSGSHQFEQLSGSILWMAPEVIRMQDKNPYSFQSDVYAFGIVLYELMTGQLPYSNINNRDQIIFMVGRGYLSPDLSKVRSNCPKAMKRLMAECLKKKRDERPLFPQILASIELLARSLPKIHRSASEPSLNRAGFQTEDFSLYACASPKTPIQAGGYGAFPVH

On to THHVNILLFM [null-braftide], for which the “IC50, ELISA-based kinase assay (phosphorylation of kinase-dead MEK)” value is 2.5 µM.

These data come from patent publication US20200360469A1 (UNIVERSITY OF THE SCIENCES, published 2020).
